Assay results taken from the supplement of paper PMC9112550, “Optimization of the antimicrobial peptide Bac7 by deep mutational scanning” (BMC Biology, 2022).

test system: Escherichia coli TOP10; assay: shrunken log2 fold change of peptide-encoding DNA abundance (4.5 h post-induction vs induction); higher = less antimicrobial activity (less host growth inhibition); conditions: time post-induction: 4.5 h; library: site-saturation at positions 5, 18, 19, 20
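Note: peptides expressed intracellularly from a pBAD plasmid library in pooled LB shake-flask culture, induced with 0.3% L-arabinose, DNA abundance read by NGS, three biological replicates, DESeq2 with apeglm shrinkage.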

Sequence	shrunken log2 fold change
RRIRFRPPRLPRPRPRPWVMPRP	-0.258
RRIRFRPPRLPRPRPRPWVWPRP	0.212
RRIRFRPPRLPRPRPRPWWEPRP	0.0381
RRIRFRPPRLPRPRPRPWYMPRP	-0.991
RRIRFRPPRLPRPRPRPWYRPRP	-0.0778
RRIRFRPPRLPRPRPRPYALPRP	-0.0591
RRIRFRPPRLPRPRPRPYCCPRP	-0.324
RRIRFRPPRLPRPRPRPYCEPRP	-0.0267
RRIRFRPPRLPRPRPRPYCPPRP	-0.721
RRIRFRPPRLPRPRPRPYCRPRP	-0.256
RRIRFRPPRLPRPRPRPYCVPRP	-1.23
RRIRFRPPRLPRPRPRPYDFPRP	-0.0848
RRIRFRPPRLPRPRPRPYDLPRP	-1.02
RRIRFRPPRLPRPRPRPYEKPRP	-0.075
RRIRFRPPRLPRPRPRPYENPRP	-0.463
RRIRFRPPRLPRPRPRPYGNPRP	-0.527
RRIRFRPPRLPRPRPRPYHAPRP	-0.0961
RRIRFRPPRLPRPRPRPYKGPRP	-0.631
RRIRFRPPRLPRPRPRPYKWPRP	-0.298
RRIRFRPPRLPRPRPRPYLDPRP	-0.26
RRIRFRPPRLPRPRPRPYLIPRP	-0.417
RRIRFRPPRLPRPRPRPYLQPRP	-0.527
RRIRFRPPRLPRPRPRPYMFPRP	-1.11
RRIRFRPPRLPRPRPRPYNCPRP	-0.768
RRIRFRPPRLPRPRPRPYPVPRP	-0.115

Sequence	shrunken log2 fold change
RRIRFRPPRLPRPRPRPYRFPRP	-0.243
RRIRFRPPRLPRPRPRPYSVPRP	0.062
RRIRFRPPRLPRPRPRPYTKPRP	-0.573
RRIRFRPPRLPRPRPRPYVDPRP	-0.00112
RRIRFRPPRLPRPRPRPYVGPRP	-0.108
RRIRFRPPRLPRPRPRPYVQPRP	-0.0133
RRIRFRPPRLPRPRPRPYWDPRP	-2.48
RRIRFRPPRLPRPRPRPYYHPRP	-0.146
RRIRGRPPRLPRPRPRPAACPRP	1.15
RRIRGRPPRLPRPRPRPAATPRP	3.06
RRIRGRPPRLPRPRPRPACDPRP	0.964
RRIRGRPPRLPRPRPRPACTPRP	1.17
RRIRGRPPRLPRPRPRPADCPRP	0.349
RRIRGRPPRLPRPRPRPADPPRP	0.585
RRIRGRPPRLPRPRPRPAEDPRP	0.0402
RRIRGRPPRLPRPRPRPAEFPRP	0.69
RRIRGRPPRLPRPRPRPAENPRP	0.996
RRIRGRPPRLPRPRPRPAFAPRP	0.89
RRIRGRPPRLPRPRPRPAGGPRP	0.714
RRIRGRPPRLPRPRPRPAGSPRP	1.06
RRIRGRPPRLPRPRPRPAHLPRP	0.768
RRIRGRPPRLPRPRPRPAICPRP	0.555
RRIRGRPPRLPRPRPRPAIKPRP	0.534
RRIRGRPPRLPRPRPRPAIQPRP	0.438
RRIRGRPPRLPRPRPRPALKPRP	0.504

Sequence	shrunken log2 fold change
RRIRGRPPRLPRPRPRPALRPRP	0.991
RRIRGRPPRLPRPRPRPALYPRP	0.363
RRIRGRPPRLPRPRPRPAMVPRP	0.252
RRIRGRPPRLPRPRPRPANIPRP	-0.0276
RRIRGRPPRLPRPRPRPAPNPRP	0.829
RRIRGRPPRLPRPRPRPAPPPRP	1.07
RRIRGRPPRLPRPRPRPAPYPRP	0.218
RRIRGRPPRLPRPRPRPAQDPRP	0.836
RRIRGRPPRLPRPRPRPAQKPRP	0.721
RRIRGRPPRLPRPRPRPAQMPRP	0.305
RRIRGRPPRLPRPRPRPAQRPRP	0.858
RRIRGRPPRLPRPRPRPARTPRP	0.545
RRIRGRPPRLPRPRPRPASWPRP	2.63
RRIRGRPPRLPRPRPRPATEPRP	0.976
RRIRGRPPRLPRPRPRPAVHPRP	0.536
RRIRGRPPRLPRPRPRPAYKPRP	-0.202
RRIRGRPPRLPRPRPRPAYVPRP	-0.0723
RRIRGRPPRLPRPRPRPCAAPRP	1.89
RRIRGRPPRLPRPRPRPCDPPRP	0.228
RRIRGRPPRLPRPRPRPCDTPRP	0.13
RRIRGRPPRLPRPRPRPCDWPRP	0.519
RRIRGRPPRLPRPRPRPCGGPRP	0.472
RRIRGRPPRLPRPRPRPCGVPRP	0.578
RRIRGRPPRLPRPRPRPCKIPRP	-0.189
RRIRGRPPRLPRPRPRPCLHPRP	0.331

Sequence	shrunken log2 fold change
RRIRGRPPRLPRPRPRPCLPPRP	-0.0995
RRIRGRPPRLPRPRPRPCMHPRP	0.363
RRIRGRPPRLPRPRPRPCMKPRP	0.507
RRIRGRPPRLPRPRPRPCNAPRP	1.45
RRIRGRPPRLPRPRPRPCNSPRP	-0.0377
RRIRGRPPRLPRPRPRPCNVPRP	-0.037
RRIRGRPPRLPRPRPRPCPMPRP	1.17
RRIRGRPPRLPRPRPRPCPTPRP	0.0246
RRIRGRPPRLPRPRPRPCQAPRP	-0.0272
RRIRGRPPRLPRPRPRPCQFPRP	0.33
RRIRGRPPRLPRPRPRPCQGPRP	0.242
RRIRGRPPRLPRPRPRPCQWPRP	0.0251
RRIRGRPPRLPRPRPRPCREPRP	-0.368
RRIRGRPPRLPRPRPRPCRKPRP	-0.079
RRIRGRPPRLPRPRPRPCRVPRP	-0.0297
RRIRGRPPRLPRPRPRPCSYPRP	0.089
RRIRGRPPRLPRPRPRPCTDPRP	0.522
RRIRGRPPRLPRPRPRPCTIPRP	0.166
RRIRGRPPRLPRPRPRPCTQPRP	0.196
RRIRGRPPRLPRPRPRPCVSPRP	0.265
RRIRGRPPRLPRPRPRPCWHPRP	0.357
RRIRGRPPRLPRPRPRPCWQPRP	0.153
RRIRGRPPRLPRPRPRPCWSPRP	0.144
RRIRGRPPRLPRPRPRPCYNPRP	0.0333
RRIRGRPPRLPRPRPRPDACPRP	1.23

Sequence	shrunken log2 fold change
RRIRGRPPRLPRPRPRPDAFPRP	1.87
RRIRGRPPRLPRPRPRPDAQPRP	2.38
RRIRGRPPRLPRPRPRPDDEPRP	1.27
RRIRGRPPRLPRPRPRPDDHPRP	0.18
RRIRGRPPRLPRPRPRPDEQPRP	-0.0342
RRIRGRPPRLPRPRPRPDFDPRP	0.612
RRIRGRPPRLPRPRPRPDFQPRP	1.01
RRIRGRPPRLPRPRPRPDGDPRP	0.265
RRIRGRPPRLPRPRPRPDIQPRP	1.9
RRIRGRPPRLPRPRPRPDISPRP	-0.0115
RRIRGRPPRLPRPRPRPDIVPRP	0.192
RRIRGRPPRLPRPRPRPDKPPRP	0.415
RRIRGRPPRLPRPRPRPDMSPRP	0.0457
RRIRGRPPRLPRPRPRPDMYPRP	0.0675
RRIRGRPPRLPRPRPRPDNPPRP	0.0274
RRIRGRPPRLPRPRPRPDNVPRP	-0.011
RRIRGRPPRLPRPRPRPDQGPRP	0.347
RRIRGRPPRLPRPRPRPDRFPRP	0.375
RRIRGRPPRLPRPRPRPDRLPRP	-0.00118
RRIRGRPPRLPRPRPRPDRMPRP	-0.107
RRIRGRPPRLPRPRPRPDRWPRP	0.703
RRIRGRPPRLPRPRPRPDSIPRP	0.495
RRIRGRPPRLPRPRPRPDSKPRP	0.125
RRIRGRPPRLPRPRPRPDTVPRP	-0.116
RRIRGRPPRLPRPRPRPDWMPRP	0.235

Sequence	shrunken log2 fold change
RRIRGRPPRLPRPRPRPDWWPRP	0.937
RRIRGRPPRLPRPRPRPEAEPRP	2.74
RRIRGRPPRLPRPRPRPEATPRP	2.21
RRIRGRPPRLPRPRPRPECAPRP	2.14
RRIRGRPPRLPRPRPRPECNPRP	1.95
RRIRGRPPRLPRPRPRPEFGPRP	0.797
RRIRGRPPRLPRPRPRPEHCPRP	0.549
RRIRGRPPRLPRPRPRPEIEPRP	1.37
RRIRGRPPRLPRPRPRPEMWPRP	1.76
RRIRGRPPRLPRPRPRPENSPRP	0.678
RRIRGRPPRLPRPRPRPEPAPRP	1.69
RRIRGRPPRLPRPRPRPERDPRP	0.955
RRIRGRPPRLPRPRPRPERGPRP	1.72
RRIRGRPPRLPRPRPRPERQPRP	0.101
RRIRGRPPRLPRPRPRPERVPRP	0.397
RRIRGRPPRLPRPRPRPEVWPRP	1.58
RRIRGRPPRLPRPRPRPEWKPRP	1.3
RRIRGRPPRLPRPRPRPEWLPRP	1.5
RRIRGRPPRLPRPRPRPFAEPRP	2.46
RRIRGRPPRLPRPRPRPFAFPRP	0.531
RRIRGRPPRLPRPRPRPFAKPRP	0.479
RRIRGRPPRLPRPRPRPFALPRP	0.278
RRIRGRPPRLPRPRPRPFCTPRP	0.157
RRIRGRPPRLPRPRPRPFFCPRP	0.471
RRIRGRPPRLPRPRPRPFGQPRP	0.368
